Our source for the stoichiometry N values is paper PMC3953254.

This assay deals with SadB (cytosolic construct without signal peptide, Cys-22 replaced by serine) (S. typhimurium) (UniProt Q8ZL65). Nature of the assay: crystal structure; SadB at 8 mg/ml in 20 mM MOPS/HCl, pH 7, 50 mM NaCl; sitting drop at 20 °C; reservoir 0.2 M lithium sulfate, 0.1 M Tris, pH 8.5, 20% (w/v) PEG 4000; 2.45 Å.

Substance “SadB (cytosolic construct without signal peptide, Cys-22 replaced by serine) (from UniProt Q8ZL65 22-227) (domain or fragment)” registered a stoichiometry N of 3.

A word on the stoichiometry N: it is the number of molecules, sites or subunits per partner or assembly.
